The text below walks through data of paper PMC4954776 (Nature chemical biology, 2013).

Series [1] concerns the molecule itself. Kind of series: AUC.
Series [2] concerns the molecule itself. Kind of series: AUC. The source holds these as a separate data set.

Where two headings read alike, the source gives them in different places.

B1: BRAF^444-723 kinase domain with 16 solubilization mutations (domain or fragment)
chain: RDSSDDWEIPDGQITVGQRIGSGSFGTVYKGKWHGDVAVKMLNVTAPTPQQLQAFKNEVGVLRKTRHVNILLFMGYSTKPQLAIVTQWCEGSSLYHHLHASETKFEMKKLIDIARQTARGMDYLHAKSIIHRDLKSNNIFLHEDNTVKIGDFGLATVKSRWSGSHQFEQLSGSILWMAPEVIRMQDSNPYSFQSDVYAFGIVLYELMTGQLPYSNINNRDQIIEMVGRGSLSPDLSKVRSNCPKRMKRLMAECLKKKRDERPSFPRILAEIEELARELSG
Take B1: the Kd was under 780 nM in “AUC [1]” and over 25 µM in “AUC [2]”.
